The values that follow come from patent publication US7790845B2, “Bacterial ion channel” (Children's Medical Center Corporation, priority 2001, dated 2010).

This test concerns CHO-K1 or COS-7 cells. The test is described as follows: Ion selectivity and relative permeability of NaChBac (Example 1). The format is cell-based. The source says:
The internal pipette solution used in determining the relative permeability of K^+ and Ca^2+ contained (in mM) 133 Cs-methanesulfonate, 5 CsCl, 10 EGTA, 10 HEPES (pH adjust to 7.2 with CsOH). External solution for K^+ permeability experiments contained 142 KCl, 10 HEPES, 10 glucose (pH 7.3 adjusted with KOH). External solution for Ca^+ permeability determinations contained 105 CaCl2, 10 HEPES, 20 glucose (pH 7.3, adjusted with Ca(OH2). The external solution used to study Ma^+ permeability contained (in mM): 140 NaCl, 5CsCl, 10 HEPES, 10 glucose (pH 7.3, adjusted with NaOH). Internal solutions were the same as described in the Detection of Current example. The relative permeability of Cs^+ versus Na^+ was calculated according to: PCs/PNa=([Na]o−[Na]iexp(ErevF/RT)/([Cs]iexp(Erev/RT)/([Cs]o) (1)
The relative permeabilities of K^+ and Ca^2+ were evaluated under bi-ionic conditions, and the relative permeability of K^+ and Ca^2+ to Cs^+ was calculated according to the following equations: Pk/PCs=[Cs]iexp(ErevF/RT)/[K]o (2) PCa/Pcs=([Cs]iexp(ErevF/RT){exp(ErevR/RT)+1}/4[Ca]o) (3)
INaChBac was weakly permeant to Ca^2+; no significant difference in current was observed by sequential perfusion with bath solution containing 1 and 10 mM [Ca^2+]o (FIG. 3B). In isotonic [Ca^2+]o (cations replaced with 105 mM Ca^2), in the inward current was <6% of that in normal [Na^+] (7.6±0.9 pA/pF at −10 mV, n=8; FIG. 3B). In contrast, INaChBac, amplitude correlated well with [Na^+]o (FIG. 3C, D). […] To estimate the relative ion selectivity of the channel, we measured changes in reversal potential while changing ionic composition. The calculated relative selectivity (±SEM) of NaChBac based on measured Erev was: PNa/PCa=72±10 (n=12); PNa/PCs=383±56(n=8); PNa/PK=171±16(n=8). INaCahBac selectivity for Na^+ is at least as high as traditional Nav channels (1, 14).

Where [1] appears, read: calculated from measured Erev, n=8.

B1: NaChBac: bacterial voltage-sensitive Na+-selective ion channel from Bacillus halodurans, 274 amino acids, SEQ ID NO: 1; pore residues 190-195 LESWAS (protein)
chain: MKMEARQKQNSFTSKMQKIVNHRAFTFTVIALILFNALIVGIETYPRIYADHKWLFYRIDLVLLWIFTIEIAMRFLASNPKSAFFRSSWNWFDFLIVAAGHIFAGAQFVTVLRILRVLRVLRAISVVPSLRRLVDALVMTIPALGNILILMSIFFYIFAVIGTMLFQHVSPEYFGNLQLSLLTLFQVVTLESWASGVMRPIFAEVPWSWLYFVSFVLIGTFIIFNLFIGVIVNNVEKAELTDNEEDGEADGLKQEISALRKDVAELKSLLKQLK
modifications: Bacillus Halodurans
notes: pore residues 190-195 LESWAS
Turning to B1, the “slope of Erev as a function of [Na+]o” value was found to be 57.8 mV/decade. For the same molecule, the “inward current in isotonic [Ca2+]o relative to that in normal [Na+]” value (105 mM Ca2+) is reported as under 6%. Where the note is “140 mM [Na+]o/1 mM [Ca2+]o”, this molecule displayed a peak current of 1430 pA. This molecule also registered a current density (140 mM [Na+]o/1 mM [Ca2+]o, n=8) of 135.9±11 pA/pF. Besides, under setting [1], the “relative selectivity PNa/PCs” value is reported as 383±56 and the “relative selectivity PNa/PK” value is reported as 171±16. Also, the “relative selectivity PNa/PCa” value (calculated from measured Erev, n=12) was 72±10. For the setting “isotonic [Ca2+]o”, this molecule gave a peak current of 87 pA. This molecule also had a current density (isotonic [Ca2+]o (105 mM Ca2+), −10 mV, n=8) of 7.6±0.9 pA/pF.
